Reference: PMC1277818, “Substrate specificity analysis of protein kinase complex Dbf2-Mob1 by peptide library and proteome array screening” (BMC Biochemistry, 2005)

Biological target: T1, FHHDbf2-H6Mob1TM9 (Saccharomyces cerevisiae, UniProt P22204+P40484)
T1 construct: made in house; host or cells: Hi5 insect cells (baculovirus)
T1 sequence (P22204 1-572): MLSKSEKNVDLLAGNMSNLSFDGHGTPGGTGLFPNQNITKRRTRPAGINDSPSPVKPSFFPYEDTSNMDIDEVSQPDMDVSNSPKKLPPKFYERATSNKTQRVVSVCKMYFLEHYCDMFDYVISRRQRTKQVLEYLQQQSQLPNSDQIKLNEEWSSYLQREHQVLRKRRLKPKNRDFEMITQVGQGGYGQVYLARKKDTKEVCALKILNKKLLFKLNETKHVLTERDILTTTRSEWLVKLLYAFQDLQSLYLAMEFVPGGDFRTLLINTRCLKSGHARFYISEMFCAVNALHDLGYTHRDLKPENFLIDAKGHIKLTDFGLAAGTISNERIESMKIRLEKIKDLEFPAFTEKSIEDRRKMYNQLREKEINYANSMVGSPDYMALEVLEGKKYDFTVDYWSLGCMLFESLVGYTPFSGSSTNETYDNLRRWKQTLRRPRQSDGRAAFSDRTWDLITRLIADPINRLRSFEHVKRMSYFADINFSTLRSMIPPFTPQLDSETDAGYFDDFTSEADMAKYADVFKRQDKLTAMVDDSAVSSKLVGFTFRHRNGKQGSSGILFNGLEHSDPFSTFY
T1 sequence (P40484 1-314 partner): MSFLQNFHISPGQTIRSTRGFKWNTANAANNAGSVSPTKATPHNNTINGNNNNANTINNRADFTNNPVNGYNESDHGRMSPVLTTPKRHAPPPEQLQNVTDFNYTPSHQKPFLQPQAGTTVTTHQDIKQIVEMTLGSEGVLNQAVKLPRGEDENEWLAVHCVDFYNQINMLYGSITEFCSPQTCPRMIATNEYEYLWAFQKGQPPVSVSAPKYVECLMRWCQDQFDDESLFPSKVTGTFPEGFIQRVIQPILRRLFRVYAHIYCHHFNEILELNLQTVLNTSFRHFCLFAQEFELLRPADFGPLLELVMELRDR
Test: Yeast proteome chip assay
Type: biochemical
Details: [γ-33P]ATP, chips in duplicate
Method: The relatively low sequence complexity of the Dbf2 phosphorylation motif diminished the power of using genome-wide bioinformatics screens to identify putative substrates. Accordingly, we carried out a proteome array screen to identify putative yeast substrates. […] After taking into account the proteins phosphorylated in the negative controls, 67 proteins were determined to be putative Dbf2-Mob1 substrates (Table 3).
Yeast proteome microarrays were prepared as previously described. Overexpressed GST-tagged yeast proteins were purified from ~4,400 yeast strains and spotted on slides. To determine the optimal amount of kinase to use for probing proteome chips, we performed trial assays as described (J. Ptacek et al., submitted). […] The full proteome array was probed with 4 μl ^FHHDbf2-^H6Mob1^TM9 in 200 μl of DKB supplemented with [γ-^33P]ATP. As a control, ^FHHDbf2(N305A)-^H6Mob1^TM9 was used to probe the proteome array. […] To control for autophosphorylated proteins, the proteome array was probed with 200 μl of DKB supplemented with [γ-^33P]ATP. Proteome chips were assayed in duplicate in each case. Data analysis was performed as described (J. Ptacek et al., submitted). Briefly, signals were analyzed by a computer algorithm designed to normalize background and identify signals as positive if 3 of 4 spots (each protein is spotted twice on each slide and each kinase or control was tested on 2 slides) were 2 standard deviations above background and the fourth spot was 1.5 standard deviations above background.

[1] = Table 3, GST fusion proteins on proteome chip, computer analysis
[2] = Table 4, the 25 proteins with highest signal relative to protein amount

Substance | Slide Signal (after normalization) [1] | Slide Signal (after normalization) [2]
YDL220C: GST fusion yeast protein on proteome chip | 1.0274 | 1.0274
YDR171W: GST fusion yeast protein on proteome chip | 0.442 | –
YMR229C: GST fusion yeast protein on proteome chip | 2.6954 | 2.6954
YNL007C: GST fusion yeast protein on proteome chip | 0.2239 | –
